# Test results: patent US20190367592A1 (AC IMMUNE, published 2019)
# Changes are numbered by the printed parent chain.
# B1: hu94B2 HC3 + LC11 (antibody, V domains shown)
# VH: EVQLVQSGAEVKKPGASVKVSCKASGYSLTGYTMNWVRQAPGQGLEWIGLISPYNGVTSYNQKFKGRATITVDKSTSTAYLELSSLRSEDTAVYYCARQGAYWGQGTLVTVSS
# VL: DVVMTQTPLSLPVTPGQPASISCKSSQSLLDSDGKTYLNWYLQKPGQSPQRLIYLVSKLDSGVPDRFSGSGSGTDFTLKISRVEAEDVGVYYCWQGTHFPWTFGQGTKVEIK
# B2: hu94B2 HC2 + LC13 (antibody, V domains shown)
# VH: B1 VH with A68V, I70L
# VL: B1 VL with V2I, Y41L
# B3: hu94B2 HC2 + LC15 (antibody, V domains shown)
# VH: B1 VH with A68V, I70L
# VL: B1 VL with V2I
# B4: hu94B2 HC3 + LC15 (antibody, V domains shown)
# VH: B1 VH
# VL: B1 VL with V2I
# B5: hu94B2 HC4 + LC9 (antibody, V domains shown)
# VH: B1 VH with I70L, V72R
# VL: B1 VL with Y41L
# B6: hu94B2 HC1 + LC11 (antibody, V domains shown)
# VH: B1 VH with I70L
# VL: B1 VL
# B7: hu94B2 HC3 + LC13 (antibody, V domains shown)
# VH: B1 VH
# VL: B1 VL with V2I, Y41L
# B8: hu94B2 HC2 + LC9 (antibody, V domains shown)
# VH: B1 VH with A68V, I70L
# VL: B1 VL with Y41L
# B9: hu94B2 HC3 + LC9 (antibody, V domains shown)
# VH: B1 VH
# VL: B1 VL with Y41L
# B10: hu94B2 HC1 + LC15 (antibody, V domains shown)
# VH: B1 VH with I70L
# VL: B1 VL with V2I
# B11: hu94B2 HC2 + LC11 (antibody, V domains shown)
# VH: B1 VH with A68V, I70L
# VL: B1 VL
# B12: hu94B2 HC4 + LC13 (antibody, V domains shown)
# VH: B1 VH with I70L, V72R
# VL: B1 VL with V2I, Y41L
# B13: hu94B2 HC5 + LC9 (antibody, V domains shown)
# VH: B1 VH with I70L, K74T
# VL: B1 VL with Y41L
# B14: 125B11-H3 (antibody, mouse IgG2a, V domains shown)
# VH: EVKLEESGGGLVQPGGSMKLSCVASRFIFSNYWMNWVRQSPEKGLEWVAQIRLKSDNYATHYAESVKGRFTISRDDSKSSVYLQMNNLRAEDTGIYYCTGGTTYWGQGTTLTVSS
# VL: DIVMTQSQKFLSTSVGDRVNITCKASQNVGTAVAWYQQKPGQSPGLLIYSASIRYTGVPDRFTGNGSGTDFTLTISDMQSEDLADYFCQQFRTYPYTFGGGTKLEIK
# notes: also called 125B1-H3
# B15: 113F5-F7 (antibody, V domains shown)
# VH: B14 VH with K19R, R26E, I28T, V37I, D76A, K78N, S79F, T103S
# VL: DIVMTQSQKIMSTSVGDRVSITCKASQNVGTAVAWYQQRPGHSPKLLIYSASRRFSGVPDRFTGSGSGTDFTLTIINVQSEDLADYFCQQFSTYPYTFGVGTKLEIK
# notes: hybridoma supernatant
# B16: 231G3F10 (antibody, V domains shown)
# VH: EVRLVESGGGLVQPKGSLKLSCAASGFSFNTYAMNWVRQAPGKGLEWVARIRSKRNNFATYYADSVKDRFTISRDDSKSMLYLQMNNLKTEDTAMYYCVRWGYDDPYAMDYWGQGTSVTVSS
# VL: NIMMTQSPSSLAVSAGEKVTMSCKSSQSVLYSSNQKNYLAWYQQKPGQSPKLLIYWASARESGVPDRFTGSGSGTDFTLTISSVQAEDLAVYYCHQYFSSFTFGSGTKLEIK
# B17: 52F6-F11 (antibody, V domains shown)
# VH: QVQLQQSGTELAKPGASVKLSCKASGYTFTHYWMHWIKQRPGQGLEWIGYIYPTNDYTKYNQNFRDKATLTADESSNSAYMQLNSLTYEDSAVYYCARAGNRVFDFWGQGTTLTVSS
# VL: QAVVTQESALTTSPGETVTLTCRSSTGAVTTSNFANWVQEKPDHLFTGLIGGTNNRAPGVPARFSGSLIGDKAALTITGAQTEDEAIYFCALWYSNLWVFGGGTKLTVL
# notes: hybridoma supernatant
# B18: 93A8-D2 (antibody, mouse IgG2a, V domains shown)
# VH: EVQLQQSGPVLVKPGASVKMSCKASGYTFTDYYVNWVKQSHGKGLEWIGLINPNNGRTSYNQNFNDKATLTVDKSSSTAFMDLNSLTSEDSAVYYCTREGGTGYWGQGTTLSVSS
# VL: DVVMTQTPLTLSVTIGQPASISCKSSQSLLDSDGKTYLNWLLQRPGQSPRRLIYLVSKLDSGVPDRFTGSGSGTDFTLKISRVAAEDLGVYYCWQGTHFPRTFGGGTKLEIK
# B19: 22G7-C9 (antibody, V domains shown)
# VH: QIQLVQSGPELKKPGETVKISCKASGYTFTDCSIHWVKQAPGEGLKWMGWINTETGEPSYADDFKGRFAFSLETSASTAFLQINNLKSEDTASYFCGTAYYRYDGALDYWGQGTSVTVSS
# VL: DIVLTQSPASLAVSLGQRATISCRASQSVSTSSYSYMHWFQQKPGQPPKLLIKYASNLESGVPARFSGSGSGTDFTLNIHPVEEEDTATYYCQHSWELPWTFGGGTKLEIK
# notes: hybridoma supernatant
# B20: 126F11-G11 (antibody, mouse IgG2a, V domains shown)
# VH: EVQLQQSGAELVRPGASVKLSCTASGFNIKDDYMHWVKQRPEQGLEWIGWIDPENGDTEYASKFQGKATITTDTSSNTAYLQLSSLTSEDTAVYYCLDFAYGYWGQGTTLTVSS
# VL: DVLMTQTPLSLPVSLGDQASISCRSSQSIVHSNGNTYLEWYLQKPGQSPKLLIYKVSNRFSGVPDRFSGSGSGTDFTLKISRVEAEDLGVYYCFQGSHVPPAFGGGTKLEIK
# B21: 30A1-C9 (antibody, V domains shown)
# VH: GVQLQQSGPELVKPGASVKISCKTSGYTFTEYTMHWMKQSHGKSLEWIGGIDPNTGNTNYNQKFKGKATLTVDKSSSTAYMDLRSLTSEDSAVYYFYGSGYWGQGTILTVSS
# VL: B20 VL with T7S, Y41F, G96A, P101R, A102T
# notes: hybridoma supernatant
# B22: 307H3E8 (antibody, V domains shown)
# VH: EVKFEESGGGLVQPGGSMKLSCVASGFTFSNYWMNWVRQSPEKGLEWVAQIRLKSDNHATHYAESVKGRFTISRDDSKSTVYLQMNNLGAEDTGIYFCTEGGAYFDYWGQGTTLTVSS
# VL: B20 VL with L3V, S28N, I29L, L38F, E39H, Y92V, F94S, G96S, S97T, A102T
# B23: 71H8-D6 (antibody, V domains shown)
# VH: EVQLQQSGAELVRSGASVKLSCTASGFNIKDYYIQWVKQRPEQGLEWIGWIDPENGDTDYAPKFQGKATMTADTSSNTAYLQFSSLTSEDTAVYYCNRGWGYWGQGTTLTVSS
# VL: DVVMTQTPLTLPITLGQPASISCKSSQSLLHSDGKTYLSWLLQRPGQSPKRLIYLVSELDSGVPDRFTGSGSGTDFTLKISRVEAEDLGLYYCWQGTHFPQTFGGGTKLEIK
# notes: hybridoma supernatant
# Biological target: T1, recombinant human Tau monomer, 2N4R isoform (amino acids 2-441) (human, UniProt P10636-8 2-441)
# T1 construct: range 2-441; N-terminal His-tag removed with TEV protease; also called monomeric Tau
# T1 sequence (P10636 other isoform, or with tags, fused parts or gaps limits assumed): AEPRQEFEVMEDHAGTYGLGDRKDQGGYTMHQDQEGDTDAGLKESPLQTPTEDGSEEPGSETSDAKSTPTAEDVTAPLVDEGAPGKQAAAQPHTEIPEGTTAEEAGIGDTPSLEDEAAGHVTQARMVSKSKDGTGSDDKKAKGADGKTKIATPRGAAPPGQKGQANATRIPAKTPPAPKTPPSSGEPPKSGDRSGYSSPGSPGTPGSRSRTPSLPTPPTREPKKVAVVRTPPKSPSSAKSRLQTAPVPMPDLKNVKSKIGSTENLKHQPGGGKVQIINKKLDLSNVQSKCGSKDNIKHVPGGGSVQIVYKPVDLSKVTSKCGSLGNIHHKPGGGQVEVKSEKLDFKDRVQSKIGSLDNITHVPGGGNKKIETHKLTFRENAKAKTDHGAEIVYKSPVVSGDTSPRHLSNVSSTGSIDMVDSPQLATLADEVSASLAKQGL
# Assay: SPR screen, hIgG captured, Tau monomer analyte
# Description: Antibody 125B11-H3 was humanized onto VH3 and Vκ1 consensus frameworks. The heavy chain graft included murine residues at position 78 (Kabat numbering system). The Vκ1 graft included murine residues in framework positions 43 and 87. The light chain of 113F5-F7 was also humanized onto the Vκ1 framework, with additional murine residues at framework positions 43 and 87. Humanized variant heavy chains (125B11) and light chains (125B11 and 113F5-F7) were co-transfected in multiple combinations and purified in 96-well format as described above. Humanized variants were then screened for affinity for human Tau monomer using the Biacore human IgG capture kit, a Series S CM5 chip and a Biacore T200 instrument. Antibodies were diluted to 2 μg/ml and captured for 15 seconds at 10 μl/min. Association and dissociation of 0, 100 and 500 nM human Tau monomer in HBSP was monitored for 180s and 300s respectively at a flow rate of 40 μl/min. A 1:1 binding model was applied to the results (Table 9).
# Variants hu125B11.v17 (HC3+LC1), hu125B11.v26 (HC4+LC2) and hu125B 11.v28 (HC4+LC4) were selected for high-resolution kinetic analysis based on the affinity screen (Table 10). Antibody 94B2-C1 was humanized onto VH1 and Vx2 frameworks. The heavy chain graft also included murine residues at position 28, 29, 67, 69, 71, and 73 (Kabat numbering system). The Vκ2 graft also included murine residues in framework positions 2, 36, and 46. […] Variant hu94B2.v105 (heavy chain variant 94B2.HCl, light chain variant 94B2.LC13) was selected for detailed SPR characterization (Table 11).
row,Binder,Kd
1,B1,69.3 nM
2,B2,7.4 nM
3,B3,99.6 nM
4,B4,64.1 nM
5,B5,61.9 nM
6,B6,91.5 nM
7,B7,3.8 nM
8,B8,5.7 nM
9,B9,2 nM
10,B10,104 nM
11,B11,89.6 nM
12,B12,64.1 nM
13,B13,2.7 nM

# Biological target: T2, full-length human Tau (flTau) (human, UniProt P10636-8 1-441)
# T2 construct: range 1-441; bought (SignalChem); also called human Tau-441
# T2 sequence (P10636 other isoform, or with tags, fused parts or gaps limits assumed): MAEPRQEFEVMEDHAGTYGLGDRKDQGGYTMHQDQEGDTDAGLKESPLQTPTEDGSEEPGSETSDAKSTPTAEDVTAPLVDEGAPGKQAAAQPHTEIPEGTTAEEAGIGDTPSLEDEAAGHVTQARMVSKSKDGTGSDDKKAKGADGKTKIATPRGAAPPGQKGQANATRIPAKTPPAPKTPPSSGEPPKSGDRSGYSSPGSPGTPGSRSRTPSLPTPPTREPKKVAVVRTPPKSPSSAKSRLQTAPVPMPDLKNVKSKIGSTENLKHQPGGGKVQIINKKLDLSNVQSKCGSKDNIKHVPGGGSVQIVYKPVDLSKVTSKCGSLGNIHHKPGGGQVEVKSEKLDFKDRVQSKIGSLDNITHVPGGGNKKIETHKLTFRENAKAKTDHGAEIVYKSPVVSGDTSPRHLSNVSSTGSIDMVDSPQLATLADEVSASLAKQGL
# Assay: SPR, hybridoma Ab on anti-IgG chip, flTau analyte
# Experimental: Affinity of non-purified antibodies in serum-free hybridoma supernatants was estimated by surface plasmon resonance using a Biacore T-100 instrument (GE Healthcare, United Kingdom). Antibodies were immobilized onto an anti-IgG biosensor chip, and flTau (SignalChem, Canada) was used as the target analyte. Kinetic analysis was done using a 1:1 Langmuir fit model.
# For affinity measurements to flTau, antibodies were measured using SPR on a Biacore instrument, with the KDs determined. Biacore affinity measurements were done by immobilizing antibodies on an anti-IgG chip and using flTau as the target analyte.
row,Binder,Kd
1,B14,6 nM
2,B15,2.4 nM
3,B16,0.2 nM
4,B17,8.4 nM
5,B18,4.3 nM
6,B19,36 nM
7,B20,4.2 nM
8,B21,0.6 nM
9,B22,1 nM
10,B23,0.8 nM

# Biological target: T1, recombinant human Tau monomer, 2N4R …
# Assay: SPR, mIgG2a captured, Tau monomer analyte, 1:1 fit
# Description: Antibody heavy and light chains were constructed via gene synthesis and subcloning of the resulting DNA into murine IgG2a (heavy chain) and murine kappa (light chain) mammalian expression vectors. Antibodies were expressed in CHO or 293T cells by transient co-transfection of the heavy chain and light chain plasmids and were purified with affinity resin MabSelectSure (GE Healthcare Life Sciences). Purified recombinant antibodies were screened for binding to Tau monomer protein on a Biacore T200 surface plasmon resonance instrument using a mouse IgG capture kit and a Series S CM5 chip. Antibodies in mIgG2a format diluted in 10 mM HEPES pH7.4, 150 mM NaCl, 0.05% Tween 20 (running buffer, HBSP) were captured for 30 or 45 seconds at a concentration of 1 μg/ml (antibodies 26C1, 94B2-C1, 52F6-F11.v1, 52F6-F11.v2, 11E10-B8, 55E7-F11, 125B1-H3, 123E9-A1, 30G1-B2, 66F5-A1, 89F4-A1, 93A8-D2 and 126F11-G11) or for 70 or 150 seconds at a concentration of 0.1 μg/ml (antibodies 19H6-F7, 3A4-H4, 54C1-H11 and 37D3-H9) using a flow rate of 10 μl/min. […] Association and dissociation times were monitored for 180-480 seconds and for 300-600 seconds respectively. Antibody 37D3-H9 was selected for further analysis due to the high affinity (Table 6) and the absence of NXS/T glycosylation motifs in the CDRs.
Binder,Kd,koff,kon
B14,5 nM,0.0003 s⁻¹,50000 M⁻¹ s⁻¹
B18,6 nM,0.002 s⁻¹,300000 M⁻¹ s⁻¹
B20,3 nM,0.004 s⁻¹,2e+06 M⁻¹ s⁻¹
